The supplement of paper PMC10724198
± gives the standard deviation of the averaged measurements.

Test system: Saccharomyces cerevisiae
Assay: protein stability index of tFT-peptide fusion (C-terminal peptide) (PSI (0-1 scale)); higher = more stable (slower turnover)
Conditions: genetic background: wild type; temperature: 30 C
Experimental: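 Multiplexed protein stability (MPS) profiling in S. cerevisiae. Random 12-aa peptides (tFT-X12 library) are fused to the C-terminus of a sfGFP-mCherry tandem fluorescent timer, after mCherry and a GGGS linker. Cells are FACS-sorted into 8 mCherry/sfGFP bins and deep-sequenced. The protein stability index (PSI) is the read-weighted bin average, scaled from 0 (unstable) to 1 (stable). Only peptides with >10 reads are reported; cells were grown at 30 °C in SC-His with glucose.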
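Further: PSI is a weighted mean of sequencing reads over stability bins, variants kept only with over 10 reads, mCherry proximal and sfGFP distal, peptide attached via GGGS linker.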

Sequence	protein stability index
FTSPLPPVAPPL	0.693 ± 0.03
FTVCVIYSKPSQ	0.5872 ± 0.0013
FTWFGAFLSCFV	0.61 ± 0.069
FVADRLIFGKSL	0.71 ± 0.044
FVASVGVGGGVG	0.58 ± 0.013
FVGAAALSVWGG	0.645 ± 0.0072
FVLADLVPILFS	0.7102 ± 0.0013
FVLLGVRGVAGW	0.709 ± 0.02
FVLSVDLSVEGS	0.585 ± 0.037
FVNKRRGCRELE	0.701 ± 0.0053
FVQSMGVGLGWG	0.694 ± 0.026
FVRPPHTTHPHP	0.681 ± 0.041
FVSFFPFPFLLL	0.482 ± 0.045
FVSGLEMCRTCF	0.672 ± 0.025
FVSLVATASHWV	0.568 ± 0.033
FVSSFSCVGLVL	0.644 ± 0.08
FWGGGGGVGLAV	0.683 ± 0.063
FWMPKASALGAA	0.655 ± 0.019
FYPSRVPPLQSA	0.662 ± 0.056
FYREFNSSSVCT	0.788 ± 0.24
FYRPNLLNAGRL	0.715 ± 0.023
FYRWDTFRWTRG	0.683 ± 0.01
FYYAERGSVERQ	0.641 ± 0.0095
GACHNVGVGPLG	0.67 ± 0.024
GACPARGRFLRR	0.753 ± 0.086
GACSPQTNDSSR	0.709 ± 0.035

Sequence	protein stability index
GADPPGHSSDDS	0.712 ± 0.11
GADTSRSYRIGL	0.757 ± 0.0085
GAFCGGSSVFYL	0.659 ± 0.01
GAFRQGYCLSGL	0.67 ± 0.025
GAGAHCVSWLSN	0.695 ± 0.0076
GAGDGRGRIEGR	0.674 ± 0.015
GAGGCNVGWRIR	0.7265 ± 0.0014
GAGKGWARWLVW	0.632 ± 0.041
GAGMAGEVVGDG	0.637 ± 0.026
GAGWCDGGRGGV	0.6747 ± 0.0014
GAGWLSWEGGGD	0.686 ± 0.04
GALLLVPFFWGE	0.668 ± 0.018
GAPLALSVSFPG	0.648 ± 0.014
GAQSRQMRSLAQ	0.65 ± 0.11
GARAGLIDALLS	0.675 ± 0.021
GARGMGGLFFLG	0.728 ± 0.053
GARSRLFRWWVA	0.601 ± 0.012
GASDWVMLYWVV	0.584 ± 0.0098
GASGLRIIQVSW	0.671 ± 0.0098
GASGVYMLDAYA	0.632 ± 0.058
GASPRAYPLPPP	0.707 ± 0.032
GATGGAWGVWAG	0.676 ± 0.019
GAVARFRPCWPL	0.633 ± 0.011
GAVWLLFCGGVG	0.555 ± 0.024
GCFFQPRWSLLS	0.599 ± 0.0088
GCFLDLVFRSRI	0.668 ± 0.0074

Sequence	protein stability index
GCFLRHAPALRF	0.735 ± 0.063
GCGSYELLRSAS	0.68 ± 0.012
GCLDGLGLPCLS	0.681 ± 0.079
GCLGDRVKSPIV	0.638 ± 0.068
GCPHGTLFVSLE	0.699 ± 0.065
GCRARKSRRTPT	0.664 ± 0.011
GCRCWGVRVGCV	0.5407 ± 0.003
GCRGEWGWVGRG	0.691 ± 0.017
GCSCFLAGAFVL	0.732 ± 0.038
GCSQGGRRSGNE	0.644 ± 0.029
GDFFQRVVGGGG	0.733 ± 0.16
GDFFVGLEWRDI	0.622 ± 0.13
GDFILLCDFDPI	0.712 ± 0.09
GDFSLCPMFCAP	0.677 ± 0.071
GDGSNVSLFILF	0.784 ± 0.13
GDGWLSGVPEEL	0.74 ± 0.017
GDKKYRYGNKVF	0.737 ± 0.086
GDRRRVFGSEQR	0.662 ± 0.088
GDYKESAFRMDG	0.761 ± 0.043
GEAWWLRGGGER	0.757 ± 0.03
GEEGRNEQKQDA	0.7249 ± 0.0011
GEGERVCVGSEF	0.745 ± 0.033
GEGLWGGRGRRW	0.687 ± 0.046
GEGPTGAKQDYV	0.6239 ± 0.0023
GEGRGLCNLVAG	0.65 ± 0.025
GEGTERLGKSTR	0.651 ± 0.046

Sequence	protein stability index
GEKQVDGGDGQR	0.6985 ± 0.0012
GEKREGRKTRRD	0.608 ± 0.046
GERDWRAKRTRE	0.692 ± 0.055
GERGGKGHEQGL	0.623 ± 0.043
GERWSGVGEWVW	0.739 ± 0.014
GESRDEGRGVRA	0.638 ± 0.069
GEVIAYGSAWGL	0.647 ± 0.014
GEWGRVGVPGCS	0.718 ± 0.043
GEWRFCLGYRRR	0.647 ± 0.018
GFCCPMFLALFS	0.587 ± 0.022
GFCRWVRRDDCI	0.693 ± 0.032
GFCTVVGGVVIG	0.7202 ± 0.0016
GFFGDFIVFDFS	0.777 ± 0.022
GFGFLQIVSGWL	0.608 ± 0.067
GFGGWIVCLGGG	0.669 ± 0.0096
GFGSEGQDMVGL	0.6658 ± 0.0027
GFGSTTTRLALV	0.662 ± 0.13
GFGVAGLVGKGV	0.662 ± 0.053
GFIYRLCRISIP	0.635 ± 0.025
GFKEGRSYWRFY	0.74 ± 0.034
GFLIGRLGEGSG	0.728 ± 0.023
GFLPCKVVRTCV	0.549 ± 0.055
GFLPSIVPPVPR	0.753 ± 0.02
GFLPVQGQGLVD	0.688 ± 0.045
GFRVSVGVVEGG	0.6716 ± 0.0056
GFSLSGRFFLRC	0.708 ± 0.013

Sequence	protein stability index
GFSNKKNVPLTR	0.568 ± 0.066
GFSSVILMHMPC	0.7534 ± 0.0048
GFVFSRGLERPL	0.675 ± 0.062
GFVPGGGGRSSV	0.681 ± 0.0092
GFVRGDRSGGGG	0.72 ± 0.0085
GFVVCVFPLLLP	0.563 ± 0.029
GFWGSRTSGSIP	0.7335 ± 0.007
GGAEACSDRGGG	0.704 ± 0.018
GGAEGLHVRDVV	0.722 ± 0.051
GGAGGGVWGGGV	0.735 ± 0.014
GGAGGHCSHEWS	0.728 ± 0.039
GGAMYVSFFDKF	0.68 ± 0.021
GGARESGRVEQV	0.676 ± 0.011
GGARPVWDPGFG	0.684 ± 0.0031
GGCGGVWGACVV	0.709 ± 0.023
GGCVTRYSSQRA	0.656 ± 0.041
GGCVVGTGRRRY	0.6114 ± 0.0061
GGDAGGVFSRLC	0.632 ± 0.0096
GGDGGSDHHRER	0.6856 ± 0.0044
GGEGGRALGVGR	0.673 ± 0.028
GGEGLRGAAWGI	0.653 ± 0.12
GGEICPARECGA	0.648 ± 0.042
GGFGAVPEVRAR	0.725 ± 0.035
GGFICRHGVGRG	0.708 ± 0.011
GGFLMVSPMDWA	0.703 ± 0.026
GGFTSIRLTHLS	0.698 ± 0.043

Sequence	protein stability index
GGGAFVGLDFGG	0.684 ± 0.0071
GGGAGGAVRRAS	0.6932 ± 0.005
GGGAGGGGRRGR	0.747 ± 0.01
GGGAGRSWFVGC	0.711 ± 0.042
GGGARPTLDRAR	0.637 ± 0.028
GGGAWGGMCGVV	0.717 ± 0.047
GGGDGIHRYAGG	0.7 ± 0.035
GGGERCEGVWVE	0.579 ± 0.01
GGGEWGLGVRPR	0.725 ± 0.008
GGGGEVARSAHR	0.6696 ± 0.0056
GGGGGERGRGGS	0.708 ± 0.02
GGGGGGLTGRVG	0.711 ± 0.009
GGGGGSSWVGYG	0.8981 ± 0.0027
GGGGGWGGGGGG	0.7 ± 0.087
GGGGHMGGRLVK	0.692 ± 0.039
GGGGKGTSGQGR	0.688 ± 0.017
GGGGLDGYGGGG	0.69 ± 0.029
GGGGLGWWEWDR	0.736 ± 0.071
GGGGPGGLVGAA	0.662 ± 0.035
GGGGSRRGVGDR	0.687 ± 0.013
GGGGTGTSGQGR	0.718 ± 0.046
GGGIVGWFCRGR	0.675 ± 0.068
GGGLGGGGGVWG	0.7104 ± 0.004
GGGLGGVRGGVR	0.628 ± 0.074
GGGLMVARFGPS	0.664 ± 0.037
